According to patent US12084521B2, “TLR9 inhibitors to suppress inflammatory response to pathogens” (University Of Maryland, Baltimore, priority 2018, dated 2024):
No end group written: not given here.

Experiments:
recombinant TIRAP = recombinant TIRAP (Homo sapiens, UniProt P58753); conditions: cited from earlier work
TIRAP TIR = target: T1, TIRAP TIR (Homo sapiens, UniProt P58753); assay: FLIM/FRET binding of Cy3-labeled peptides to Cer-fused TIR in HeLa cells; conditions: HeLa cells, Cy3-peptide 2.5-40 μM, 1 hour
T1 construct: fused with TLR9 TIR or TIRAP TIR; expressed in transfected cells; host or cells: HeLa
T1 sequence (P58753 84-213 limits assumed): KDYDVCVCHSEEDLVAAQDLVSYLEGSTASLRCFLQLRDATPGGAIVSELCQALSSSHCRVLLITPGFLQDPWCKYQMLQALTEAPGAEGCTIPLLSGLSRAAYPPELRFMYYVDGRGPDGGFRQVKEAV
Protocol: Three million HeLa cells were transfected with 10 μg of MyD88-Cer, TIRAP-Cer, TRAM-Cer, TLR2-Cer, TLR4 TIR-Cer, or TLR9 TIR-Cer expression vectors using a Lipofectamine™ 3000 kit from Invitrogen™ per manufacturer recommendations. Twenty four hours later, the transfected cells were trypsinized and reseeded into a 50-well gasket (Grace Bio-Labs™) mounted on a microscope slide at the density 8000 cells/well. The next day, cells were treated with Cy3-9R34-ΔN or Cy3-9R11 for 1 hour and fixed on the slides with a 4% paraformaldehyde solution.
Fluorescence lifetime images were acquired using the Alba V FLIM™ system (ISS™ Inc.). The excitation was from the laser diode 443 nm coupled with scanning module (ISS™) through multiband dichroic filter 443/532/635 nm (Semrock™) to Olympus™ IX71S microscope with objective 20×0.45 NA (UPlan™ Olympus™). Emission was observed through bandpass filter […] (Chroma Technology™) and detected by a photomultiplier H7422-40 (Hamamatsu™). Measurements were performed using frequency domain (FD) and time domain (TD) modalities of the FLIM system. FD FLIM data were acquired using ISS™ A320 FastFLIM™ electronics with n harmonics of 20 MHz laser repetition frequency (n=1, 2, 3, 4, 5, 6). FastFLIM™ was calibrated using fluorescein in buffer pH 8.0 as a standard with a single lifetime of 4.0 ns. TD FLIM images were acquired using time-correlated single photon counting TCSPC™ Model SPC-830 (Becker & Hick™).
Images (256×256 pixels) were acquired with resolution varied in the range ˜0.4-0.7 μm/pixel, using scan speed 1 ms/pixel. To avoid pixel intensity saturation in bright cells and to improve the signal from dim cells, two to five overlapping scans were used for acquisition of FLIM images. Image sizes varied from 100×100 to 180×180 μm to accommodate multiple cells. FLIM data were analyzed with VistaVision™ Suite software (Vista™ v.212 from ISST). Fluorescence lifetime was determined using single- and bi-exponential intensity decay models. Average lifetime images were generated based on pixel-by-pixel analysis using the combined signal of two neighboring pixels in all directions (bin 2=25 pixels). The binning was used to improve the signal for analysis. The average lifetimes were calculated from fitted parameters, decay times τi and amplitudes αi, τa=Σαiτi. The bi-exponential fitting procedure was performed with one lifetime component fixed at 3.1 nsec, which was found common for most images. To calculate the effective FRET efficiency (E), average lifetimes of the donor only images (τD) and donor-acceptor images (τDA) were used, E=1−τDA/τD.
To identify potential binding partners of inhibitory peptides a FRET approach coupled with Fluorescence Lifetime Imaging Microscopy (FLIM) was used. HeLa cells were transiently transfected with an expression vector that encodes a TIR domain fused with Cerulean fluorescent protein (Cer). Cells were treated with various concentrations of a Cy3-labeled inhibitory peptide 48 hours after transfection. Cy3 is a suitable FRET acceptor for Cer fluorescence. A direct molecular interaction of a Cy3-labeled peptide with Cer-fused TIR domain should quench Cer fluorescence, leading to a decreased fluorescence lifetime.
TLR9, MyD88, and TIRAP were selected as potential primary binding partners for Cy3-9R34-ΔN and Cy3-9R11. Cer-fused TLR2 and TLR4 TIR domains, and Cer not fused to a TIR, were used as controls. […] Therefore, the TIRAP-Cer with Cy3-2R9 was used as a positive binding control. Binding of Cy3-labeled CPDPs to Cerulean- (Cer-) labeled TIR domains was tested as follows. Fluorescence Lifetime IMages (FLIM) were made of HeLa cells expressing Cer not fused with a TIR domain (upper row) or fused with TLR9 TIR or TIRAP TIR (middle and bottom rows) and treated with a Cy3-labeled decoy peptide for 1 hour.
A progressive shift of average fluorescence lifetime towards lower values observed with increasing peptide concentrations indicates the binding between donor and acceptor moieties. […]

TLR2/1 signaling = assay: Plasma cytokines after i.p. Pam3C in mice; type: in vivo, C57BL/6J mice; conditions: peptide 200 nmol/mouse i.p.; Pam3C 67 nmol/mouse
Protocol: Systemic cytokine levels were measured in plasma samples obtained 1, 3, and 5 hours after intraperitoneal (i.p.) administration of 7.86 nmol (50 μg) of ODN 1668 or 67 nmol of Pam3C per mouse, using ELISA kits from Biolegend™ Inc. CPDP were dissolved in PBS and administered i.p. at the dose of 200 nmol per mouse 1 hour before administration of a TLR agonist. For survival experiments, mice were sensitized to TLR9 agonists by i.p. injection of 20 mg of D-Gal 30 minutes before administration of peptides or PBS. ODN 1668 was used at the doses of 3.93 or 7.86 nmol/mouse (25 or 50 μg/mouse) 1.5 hours after D-Gal. Animal survival was monitored for 50 hours. All agents were administered i.p. in 500 μL volume of PBS. […]
To test the in vivo efficacy and specificity of 9R34-ΔN, C57BL/6J mice were mock-treated or treated i.p. with a single dose of inhibitory or control peptide (200 nmol/mouse) and challenged with TLR9 agonist ODN 1668 (7.86 nmol/mouse) or TLR2/1 agonist Pam3C (67 nmol/mouse) 1 hour later. Plasma concentrations of TNFα and IL-12-p40 were measured 1, 3, and 5 hours after the challenge. […]
Plasma TNFα and IL-12-p40 levels following intraperitioneal administration of ODN 1668 to C57Bl/6J mice in peptide-pretreated and control mice are shown in FIG. 14A and FIG. 14B. […] The statistical significance of changes in cytokine concentrations was determined by a two-way ANOVA test; *p<0.001.

TLR9 signaling = assay: Plasma cytokines after i.p. ODN 1668 in mice; type: in vivo, C57BL/6J mice; conditions: peptide 200 nmol/mouse i.p.; ODN 1668 7.86 nmol/mouse
Protocol: Systemic cytokine levels were measured in plasma samples obtained 1, 3, and 5 hours after intraperitoneal (i.p.) administration of 7.86 nmol (50 μg) of ODN 1668 or 67 nmol of Pam3C per mouse, using ELISA kits from Biolegend™ Inc. CPDP were dissolved in PBS and administered i.p. at the dose of 200 nmol per mouse 1 hour before administration of a TLR agonist. For survival experiments, mice were sensitized to TLR9 agonists by i.p. injection of 20 mg of D-Gal 30 minutes before administration of peptides or PBS. ODN 1668 was used at the doses of 3.93 or 7.86 nmol/mouse (25 or 50 μg/mouse) 1.5 hours after D-Gal. Animal survival was monitored for 50 hours. All agents were administered i.p. in 500 μL volume of PBS. Animals had free access to food and water during the observation period. All animal experiments were conducted in accordance with the national guidelines for the care and use of laboratory animals under a protocol that was approved by the UMB IACUC.
To test the in vivo efficacy and specificity of 9R34-ΔN, C57BL/6J mice were mock-treated or treated i.p. with a single dose of inhibitory or control peptide (200 nmol/mouse) and challenged with TLR9 agonist ODN 1668 (7.86 nmol/mouse) or TLR2/1 agonist Pam3C (67 nmol/mouse) 1 hour later. Plasma concentrations of TNFα and IL-12-p40 were measured 1, 3, and 5 hours after the challenge. Both TLR agonists increased concentrations of TNFα and IL-12-p40 in 1 hour samples from below the limit of detection to about 1.2 and about 6 ng/mL in the case of ODN 1668, and to 0.12 ng/mL and 1 ng/mL after treatment with Pam3C.
Plasma TNFα and IL-12-p40 levels following intraperitioneal administration of ODN 1668 to C57Bl/6J mice in peptide-pretreated and control mice are shown in FIG. 14A and FIG. 14B. Data shown in these figures represent the means±SEM obtained in at least three independent experiments. The statistical significance of changes in cytokine concentrations was determined by a two-way ANOVA test; *p<0.001.

Chain of recombinant TIRAP (P58753 whole entry, the tested form may be a part): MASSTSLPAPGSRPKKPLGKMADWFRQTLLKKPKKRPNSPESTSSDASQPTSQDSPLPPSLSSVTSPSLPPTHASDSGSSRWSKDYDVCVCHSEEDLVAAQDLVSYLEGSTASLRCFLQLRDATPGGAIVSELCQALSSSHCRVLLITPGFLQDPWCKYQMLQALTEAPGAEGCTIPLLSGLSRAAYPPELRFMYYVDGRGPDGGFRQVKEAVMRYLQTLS

PQRFCKLRKIMNT (also: Cy3 label, position not given here) [Peptide 2R9, reference compound]
affinity for recombinant TIRAP (recombinant TIRAP): nanomolar | quenching of TIRAP-Cer fluorescence (TIRAP TIR): slightly higher than for the TLR9-9R34-ΔN pair | Pam3C-induced plasma cytokine levels (TNFα, IL-12-p40) (TLR2/1 signaling): suppressed cytokine induction | ODN 1668-induced plasma cytokine levels (TNFα, IL-12-p40) (TLR9 signaling): suppressed cytokine induction
